Data on two molecules can be found in patent US20150166647A1 (VLST, published 2015).

In one assay the target is T1, mouse MIP-1α/CCL3 (mouse, UniProt P10855 24-92).
T1 construct: also called muMIP-1α
T1 sequence: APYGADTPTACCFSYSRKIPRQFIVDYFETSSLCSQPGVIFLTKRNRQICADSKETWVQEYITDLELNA
The assay is described as follows: MSD electrochemiluminescence, chemokine coated at 1 µg/mL.

In the next assay the target is T2, mouse MIP-1β/CCL4 (mouse, UniProt P14097 24-92).
T2 construct: also called muMIP-1β
T2 sequence: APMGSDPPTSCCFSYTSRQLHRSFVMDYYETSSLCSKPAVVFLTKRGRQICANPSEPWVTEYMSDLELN
The description is as above.

A further assay deals with T3, mouse RANTES/CCL5 (mouse, UniProt P30882 24-91).
T3 construct: also called muRANTES
T3 sequence (P30882 24-91 limits assumed): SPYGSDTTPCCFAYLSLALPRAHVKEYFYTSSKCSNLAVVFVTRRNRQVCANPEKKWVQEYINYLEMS
The assay is described as above.

A further assay deals with T4, I-309.
T4 construct: also called I-309/CCL1; CCL1
T4 chemokine: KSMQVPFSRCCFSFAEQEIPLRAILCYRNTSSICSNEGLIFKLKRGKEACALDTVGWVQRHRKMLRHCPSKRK
Put plainly: MSD electrochemiluminescence assay; chemokine coated at 1 µg/mL, 7D12A at 3 µg/mL; background = BSA.

A further assay has as its target T5, IL-8.
T5 construct: also called IL-8/CXCL8; CXCL8
The assay is described as above.

For another assay, the target named is T6, SDF.
T6 construct: also called SDF-1/CXCL12; CXCL12
T6 sequence (chemokine, as listed by the source): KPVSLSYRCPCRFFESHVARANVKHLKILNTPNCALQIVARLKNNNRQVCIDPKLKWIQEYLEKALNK
The assay is described as above.

The target in a further assay is T7, Fractalkine.
T7 construct: also called Fractalkine/CX3CL1; CX3CL1
T7 chemokine: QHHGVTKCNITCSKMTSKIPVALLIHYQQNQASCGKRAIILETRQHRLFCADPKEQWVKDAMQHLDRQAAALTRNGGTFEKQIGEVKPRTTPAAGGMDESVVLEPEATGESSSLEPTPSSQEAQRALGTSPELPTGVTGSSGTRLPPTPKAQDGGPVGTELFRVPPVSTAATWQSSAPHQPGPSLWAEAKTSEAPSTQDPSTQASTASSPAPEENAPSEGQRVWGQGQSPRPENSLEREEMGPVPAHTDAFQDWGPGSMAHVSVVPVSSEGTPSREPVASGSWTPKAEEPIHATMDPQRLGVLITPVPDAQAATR
The assay is described as above.

For another assay, the target named is T8, HCC-4.
T8 construct: also called HCC-4/CCL16; CCL16
T8 chemokine: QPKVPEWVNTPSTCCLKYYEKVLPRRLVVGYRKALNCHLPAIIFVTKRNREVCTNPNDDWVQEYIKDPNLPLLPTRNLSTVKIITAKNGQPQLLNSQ
The description is as above.

The target of the next assay is T9, MCP-2.
T9 construct: also called MCP-2/CCL8; CCL8
T9 chemokine: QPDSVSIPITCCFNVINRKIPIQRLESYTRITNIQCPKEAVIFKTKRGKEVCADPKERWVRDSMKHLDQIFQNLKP
The description is as above.

The next assay addresses T10, MCP-3.
T10 construct: also called MCP-3/CCL7; CCL7
Described as above.

A further assay concerns the target T11, MCP-4.
T11 construct: also called MCP-4/CCL13; CCL13
The assay is described as above.

For another assay, the target named is T12, Eotaxin.
T12 construct: also called Eotaxin/CCL11; CCL11
T12 sequence (chemokine, as listed by the source): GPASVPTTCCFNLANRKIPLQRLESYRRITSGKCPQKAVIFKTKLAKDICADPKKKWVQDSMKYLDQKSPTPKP
Described as above.

The target of a further assay is T13, MDC.
T13 construct: also called MDC/CCL22; CCL22
T13 chemokine: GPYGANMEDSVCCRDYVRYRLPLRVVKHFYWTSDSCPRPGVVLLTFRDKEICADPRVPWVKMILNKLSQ
The assay is described as above.

Another assay has as its target T14, human MPIF-1/CCL23 (human, UniProt P55773 46-120).
T14 sequence: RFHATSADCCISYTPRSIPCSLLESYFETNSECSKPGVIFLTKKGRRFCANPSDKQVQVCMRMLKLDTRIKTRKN
Described as above.

The next assay deals with T15, human HCC-2/MIP-1δ/CCL15 (human, UniProt Q16663 46-113).
T15 sequence: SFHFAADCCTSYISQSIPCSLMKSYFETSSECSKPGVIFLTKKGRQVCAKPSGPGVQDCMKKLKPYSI
Described as above.

Another assay deals with T16, human HCC-1/CCL14/CCL14a (human, UniProt Q16627 28-93).
T16 sequence: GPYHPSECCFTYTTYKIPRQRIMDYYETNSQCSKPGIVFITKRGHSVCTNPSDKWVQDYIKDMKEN
The description is as above.

The target in a further assay is T17, human PARC/CCL18 (human, UniProt P55774 21-89).
T17 sequence: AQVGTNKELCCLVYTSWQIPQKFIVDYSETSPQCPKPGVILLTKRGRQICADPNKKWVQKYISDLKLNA
Described as above.

The target in a further assay is T18, human MCP-1/CCL2 (human, UniProt P13500 24-99).
T18 construct: also called Biotin-MCP1
T18 sequence (P13500 24-99 limits assumed): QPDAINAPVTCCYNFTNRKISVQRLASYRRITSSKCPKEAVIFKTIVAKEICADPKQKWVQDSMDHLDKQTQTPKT
The assay is described as above.

T11 sequence (chemokine, as listed by the source): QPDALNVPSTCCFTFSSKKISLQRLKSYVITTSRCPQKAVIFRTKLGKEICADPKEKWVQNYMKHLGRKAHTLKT
T10 sequence (chemokine, as listed by the source): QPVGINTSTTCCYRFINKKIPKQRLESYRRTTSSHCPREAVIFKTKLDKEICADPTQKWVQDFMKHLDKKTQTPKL
T5 sequence (chemokine, as listed by the source): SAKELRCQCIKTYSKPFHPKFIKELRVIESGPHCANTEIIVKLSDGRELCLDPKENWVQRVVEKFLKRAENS

B1: monoclonal antibody 18V4F (antibody, V domains shown)
VH: QVQLKESGPGLVAPSQSLSITCTVSGFSLTGYGIHWVRQPPGKGLEWLGVIWPGGGTNYNSALMSRLSISKDNSKSQVFLKMNSLQTDDTAMYYCARGPLITTEVSMDYWGQGTSVTVSS
VL: QAVVTQESALTTSPGETVTLTCRSNTGAVTTSNYANWVQEKPDHLFTGLIGGTNNRAPGVPARFSGSLIGDKAALTITGAQTEDEAIYFCALWYSNHWVFGGGTKLTVLG
notes: also called MAb 18V4F
On to B1, for which the binding result with mouse MIP-1α/CCL3, in the assay with mouse MIP-1β/CCL4 and in the assay with mouse RANTES/CCL5 was “no binding (tested: 3 µg/mL)” in each case.

B2: monoclonal antibody 7D12A (antibody, V domains shown)
VH: EVHLQESGPSLVKPSQTLSLTCSVTGDSITNGYWNWIRKFPGNKLDYMGYISYDGNTYYNPSLKSRFSITRDTSKNQYYLQLNSVTTEDTATYYCSRGDYGTYVMDYWGQGTSVTVSS
VL: NIVLTQSPVSLAVSLGQRATISCRASESVDSHGNSFMHWYQQKPGQPPKLLIYLASNLESGVPARFTGGGSGSDFTLTIDPVEADDVGTYYCQQNNEDPYTFGGGTKLEIK
notes: also called MAb 7D12A
Take B2: the binding result with mouse MIP-1α/CCL3, with mouse MIP-1β/CCL4, in the assay with mouse RANTES/CCL5, in the assay with I-309, with IL-8 and in the assay with SDF was “no binding (tested: 3 µg/mL)” throughout. Moreover, the binding result with Fractalkine, with HCC-4, in the assay with MCP-2, with MCP-3, with MCP-4 and in the assay with Eotaxin was “no binding (tested: 3 µg/mL)” throughout. The binding result is given as “no binding (tested: 3 µg/mL)” in the assay with MDC; “binds” in the assay with human MPIF-1/CCL23; “no binding (tested: 3 µg/mL)” with human HCC-2/MIP-1δ/CCL15; “no binding (tested: 3 µg/mL)” with human HCC-1/CCL14/CCL14a; “no binding (tested: 3 µg/mL)” in the assay with human PARC/CCL18; “no binding (tested: 3 µg/mL)” in the assay with human MCP-1/CCL2.
